Data taken from article PMC6804253, “Predicting and Experimentally Validating Hot-Spot Residues at Protein–Protein Interfaces” (ACS Chemical Biology, 2019).

Columns and labels:
[1] = tested on: PPIs of the SKEMPI data set (by PDBID); assay: SKEMPI experimental ΔΔG, single mutations to alanine; type: binding; conditions: for sk_class: class of the SKEMPI experimental ΔΔG
[2] = tested on: PPIs of the SKEMPI data set (by PDBID); conditions: ref SKEMPI, cited from earlier work; for sk_ddG_kJ (SKEMPI experimental ΔΔG): complex given by PDBID, mutation by mut_pdb; for sk_ddG_kJ (SKEMPI experimental ΔΔG of binding, mutation to alanine): single mutation to alanine in the complex of the given PDBID; for sk_ddG_kJ: SKEMPI experimental ΔΔG of binding, complex by PDBID
[3] = Positive / Neutral / Negative by ΔΔG threshold 4.184 kJ/mol, ref SKEMPI

Molecule: 1A22 NA63A
- sk_class [1]: Neutral (neutral (little effect) 4.184 kJ/mol < ΔΔG > −4.184 kJ/mol)
- sk_ddG_kJ (SKEMPI experimental ΔΔG) ([2]; single mutation to alanine): 1.26 kJ

Molecule: 1A22 QA22A
- sk_class [1]: Neutral (neutral (little effect) 4.184 kJ/mol < ΔΔG > −4.184 kJ/mol)
- sk_ddG_kJ (SKEMPI experimental ΔΔG) ([2]; single mutation to alanine): -0.84 kJ

Molecule: 1A22 LA45A
- sk_class (class of the SKEMPI experimental ΔΔG) [1, 3]: Positive (positive (a hot residue) ΔΔG ≥ 4.184 kJ/mol)
- sk_ddG_kJ (SKEMPI experimental ΔΔG of binding, mutation to alanine) [2]: 5.02 kJ

Molecule: 1A22 VA180A
- sk_class (class of the SKEMPI experimental ΔΔG) [1, 3]: Neutral (neutral (little effect) 4.184 kJ/mol < ΔΔG > −4.184 kJ/mol)
- sk_ddG_kJ (SKEMPI experimental ΔΔG of binding, mutation to alanine) [2]: 0.00 kJ

Molecule: 1A22 NA12A
- sk_class [1]: Neutral (neutral (little effect) 4.184 kJ/mol < ΔΔG > −4.184 kJ/mol)
- sk_ddG_kJ (SKEMPI experimental ΔΔG) ([2]; single mutation to alanine): 0.42 kJ

Molecule: 1A4Y RB31A
- sk_class (class of the SKEMPI experimental ΔΔG) ([1]; class by ΔΔG threshold 4.184 kJ/mol, ref SKEMPI): Neutral (neutral (little effect) 4.184 kJ/mol < ΔΔG > −4.184 kJ/mol)
- sk_ddG_kJ (SKEMPI experimental ΔΔG, mutation to alanine) ([2]; single mutation to alanine, PPI given by PDBID, sheet sortedByGroup, r_group DERKH): 1.05 kJ

B1: 1DFJ EI202A (protein, UniProt P10775 1-456, looked up, variant E202A)
Ribonuclease inhibitor: MNLDIHCEQLSDARWTELLPLLQQYEVVRLDDCGLTEEHCKDIGSALRANPSLTELCLRTNELGDAGVHLVLQGLQSPTCKIQKLSLQNCSLTEAGCGVLPSTLRSLPTLRELHLSDNPLGDAGLRLLCEGLLDPQCHLEKLQLEYCRLTAASCEPLASVLRATRALKELTVSNNDIGEAGARVLGQGLADSACQLETLRLANCGLTPANCKDLCGIVASQASLRELDLGSNGLGDAGIAELCPGLLSPASRLKTLWLWECDITASGCRDLCRVLQAKETLKELSLAGNKLGDEGARLLCESLLQPGCQLESLWVKSCSLTAACCQHVSLMLTQNKHLLELQLSSNKLGDSGIQELCQALSQPGTTLRVLCLGDCEVTNSGCSSLASLLLANRSLRELDLSNNCVGDPGVLQLLGSLEQPGCALEQLVLYDTYWTEEVEDRLQALEGSKPGLRVIS
- sk_class ([1]; ref SKEMPI): Positive (positive (a hot residue) ΔΔG ≥ 4.184 kJ/mol)
- sk_ddG_kJ ([2]; single mutation to alanine): 4.27 kJ

B2: 1DFJ EI397A (protein, UniProt P10775 1-456, looked up, variant E397A)
Ribonuclease inhibitor: MNLDIHCEQLSDARWTELLPLLQQYEVVRLDDCGLTEEHCKDIGSALRANPSLTELCLRTNELGDAGVHLVLQGLQSPTCKIQKLSLQNCSLTEAGCGVLPSTLRSLPTLRELHLSDNPLGDAGLRLLCEGLLDPQCHLEKLQLEYCRLTAASCEPLASVLRATRALKELTVSNNDIGEAGARVLGQGLADSACQLETLRLENCGLTPANCKDLCGIVASQASLRELDLGSNGLGDAGIAELCPGLLSPASRLKTLWLWECDITASGCRDLCRVLQAKETLKELSLAGNKLGDEGARLLCESLLQPGCQLESLWVKSCSLTAACCQHVSLMLTQNKHLLELQLSSNKLGDSGIQELCQALSQPGTTLRVLCLGDCEVTNSGCSSLASLLLANRSLRALDLSNNCVGDPGVLQLLGSLEQPGCALEQLVLYDTYWTEEVEDRLQALEGSKPGLRVIS
- sk_class ([1]; ref SKEMPI): Positive (positive (a hot residue) ΔΔG ≥ 4.184 kJ/mol)
- sk_ddG_kJ ([2]; single mutation to alanine): 5.48 kJ

B3: 1DFJ EI283A (protein, UniProt P10775 1-456, looked up, variant E283A)
Ribonuclease inhibitor: MNLDIHCEQLSDARWTELLPLLQQYEVVRLDDCGLTEEHCKDIGSALRANPSLTELCLRTNELGDAGVHLVLQGLQSPTCKIQKLSLQNCSLTEAGCGVLPSTLRSLPTLRELHLSDNPLGDAGLRLLCEGLLDPQCHLEKLQLEYCRLTAASCEPLASVLRATRALKELTVSNNDIGEAGARVLGQGLADSACQLETLRLENCGLTPANCKDLCGIVASQASLRELDLGSNGLGDAGIAELCPGLLSPASRLKTLWLWECDITASGCRDLCRVLQAKETLKALSLAGNKLGDEGARLLCESLLQPGCQLESLWVKSCSLTAACCQHVSLMLTQNKHLLELQLSSNKLGDSGIQELCQALSQPGTTLRVLCLGDCEVTNSGCSSLASLLLANRSLRELDLSNNCVGDPGVLQLLGSLEQPGCALEQLVLYDTYWTEEVEDRLQALEGSKPGLRVIS
- sk_class ([1]; ref SKEMPI): Positive (positive (a hot residue) ΔΔG ≥ 4.184 kJ/mol)
- sk_ddG_kJ ([2]; single mutation to alanine): 5.52 kJ

B4: 1DFJ KI316A (protein, UniProt P10775 1-456, looked up, variant K316A)
Ribonuclease inhibitor: MNLDIHCEQLSDARWTELLPLLQQYEVVRLDDCGLTEEHCKDIGSALRANPSLTELCLRTNELGDAGVHLVLQGLQSPTCKIQKLSLQNCSLTEAGCGVLPSTLRSLPTLRELHLSDNPLGDAGLRLLCEGLLDPQCHLEKLQLEYCRLTAASCEPLASVLRATRALKELTVSNNDIGEAGARVLGQGLADSACQLETLRLENCGLTPANCKDLCGIVASQASLRELDLGSNGLGDAGIAELCPGLLSPASRLKTLWLWECDITASGCRDLCRVLQAKETLKELSLAGNKLGDEGARLLCESLLQPGCQLESLWVASCSLTAACCQHVSLMLTQNKHLLELQLSSNKLGDSGIQELCQALSQPGTTLRVLCLGDCEVTNSGCSSLASLLLANRSLRELDLSNNCVGDPGVLQLLGSLEQPGCALEQLVLYDTYWTEEVEDRLQALEGSKPGLRVIS
- sk_class ([1]; ref SKEMPI): Positive (positive (a hot residue) ΔΔG ≥ 4.184 kJ/mol)
- sk_ddG_kJ ([2]; single mutation to alanine): 5.44 kJ

B5: 1DFJ EI340A (protein, UniProt P10775 1-456, looked up, variant E340A)
Ribonuclease inhibitor: MNLDIHCEQLSDARWTELLPLLQQYEVVRLDDCGLTEEHCKDIGSALRANPSLTELCLRTNELGDAGVHLVLQGLQSPTCKIQKLSLQNCSLTEAGCGVLPSTLRSLPTLRELHLSDNPLGDAGLRLLCEGLLDPQCHLEKLQLEYCRLTAASCEPLASVLRATRALKELTVSNNDIGEAGARVLGQGLADSACQLETLRLENCGLTPANCKDLCGIVASQASLRELDLGSNGLGDAGIAELCPGLLSPASRLKTLWLWECDITASGCRDLCRVLQAKETLKELSLAGNKLGDEGARLLCESLLQPGCQLESLWVKSCSLTAACCQHVSLMLTQNKHLLALQLSSNKLGDSGIQELCQALSQPGTTLRVLCLGDCEVTNSGCSSLASLLLANRSLRELDLSNNCVGDPGVLQLLGSLEQPGCALEQLVLYDTYWTEEVEDRLQALEGSKPGLRVIS
- sk_class ([1]; ref SKEMPI): Positive (positive (a hot residue) ΔΔG ≥ 4.184 kJ/mol)
- sk_ddG_kJ ([2]; single mutation to alanine): 6.57 kJ

B6: 1DAN RU135A (protein, UniProt P13726 33-251, looked up, variant R135A)
extracellular domain: SGTTNTVAAYNLTWKSTNFKTILEWEPKPVNQVYTVQISTKSGDWKSKCFYTTDTECDLTDEIVKDVKQTYLARVFSYPAGNVESTGSAGEPLYENSPEFTPYLETNLGQPTIQSFEQVGTKVNVTVEDERTLVARNNTFLSLRDVFGKDLIYTLYYWKSSSSGKKTAKTNTNEFLIDVDKGENYCFSVQAVIPSRTVNRKSTDSPVECMGQEKGEFRE
modifications: extracellular domain
- sk_class ([1]; ref SKEMPI): Neutral (neutral (little effect) 4.184 kJ/mol < ΔΔG > −4.184 kJ/mol)
- sk_ddG_kJ ([2]; single mutation to alanine): 2.18 kJ

B7: 1DAN RU136A (protein, UniProt P13726 33-251, looked up, variant R136A)
extracellular domain: SGTTNTVAAYNLTWKSTNFKTILEWEPKPVNQVYTVQISTKSGDWKSKCFYTTDTECDLTDEIVKDVKQTYLARVFSYPAGNVESTGSAGEPLYENSPEFTPYLETNLGQPTIQSFEQVGTKVNVTVEDERTLVRANNTFLSLRDVFGKDLIYTLYYWKSSSSGKKTAKTNTNEFLIDVDKGENYCFSVQAVIPSRTVNRKSTDSPVECMGQEKGEFRE
modifications: extracellular domain
- sk_class ([1]; ref SKEMPI): Neutral (neutral (little effect) 4.184 kJ/mol < ΔΔG > −4.184 kJ/mol)
- sk_ddG_kJ ([2]; single mutation to alanine): -0.25 kJ

B8: 1DAN RU196A (protein, UniProt P13726 33-251, looked up, variant R196A)
extracellular domain: SGTTNTVAAYNLTWKSTNFKTILEWEPKPVNQVYTVQISTKSGDWKSKCFYTTDTECDLTDEIVKDVKQTYLARVFSYPAGNVESTGSAGEPLYENSPEFTPYLETNLGQPTIQSFEQVGTKVNVTVEDERTLVRRNNTFLSLRDVFGKDLIYTLYYWKSSSSGKKTAKTNTNEFLIDVDKGENYCFSVQAVIPSATVNRKSTDSPVECMGQEKGEFRE
modifications: extracellular domain
- sk_class ([1]; ref SKEMPI): Neutral (neutral (little effect) 4.184 kJ/mol < ΔΔG > −4.184 kJ/mol)
- sk_ddG_kJ ([2]; single mutation to alanine): 1.92 kJ

B9: 1DAN RU144A (protein, UniProt P13726 33-251, looked up, variant R144A)
extracellular domain: SGTTNTVAAYNLTWKSTNFKTILEWEPKPVNQVYTVQISTKSGDWKSKCFYTTDTECDLTDEIVKDVKQTYLARVFSYPAGNVESTGSAGEPLYENSPEFTPYLETNLGQPTIQSFEQVGTKVNVTVEDERTLVRRNNTFLSLADVFGKDLIYTLYYWKSSSSGKKTAKTNTNEFLIDVDKGENYCFSVQAVIPSRTVNRKSTDSPVECMGQEKGEFRE
modifications: extracellular domain
- sk_class ([1]; ref SKEMPI): Neutral (neutral (little effect) 4.184 kJ/mol < ΔΔG > −4.184 kJ/mol)
- sk_ddG_kJ ([2]; single mutation to alanine): 0.00 kJ

B10: 1DAN DU145A (protein, UniProt P13726 33-251, looked up, variant D145A)
extracellular domain: SGTTNTVAAYNLTWKSTNFKTILEWEPKPVNQVYTVQISTKSGDWKSKCFYTTDTECDLTDEIVKDVKQTYLARVFSYPAGNVESTGSAGEPLYENSPEFTPYLETNLGQPTIQSFEQVGTKVNVTVEDERTLVRRNNTFLSLRAVFGKDLIYTLYYWKSSSSGKKTAKTNTNEFLIDVDKGENYCFSVQAVIPSRTVNRKSTDSPVECMGQEKGEFRE
modifications: extracellular domain
- sk_class ([1]; ref SKEMPI): Neutral (neutral (little effect) 4.184 kJ/mol < ΔΔG > −4.184 kJ/mol)
- sk_ddG_kJ ([2]; single mutation to alanine): -0.04 kJ

B11: 1DAN KU169A (protein, UniProt P13726 33-251, looked up, variant K169A)
extracellular domain: SGTTNTVAAYNLTWKSTNFKTILEWEPKPVNQVYTVQISTKSGDWKSKCFYTTDTECDLTDEIVKDVKQTYLARVFSYPAGNVESTGSAGEPLYENSPEFTPYLETNLGQPTIQSFEQVGTKVNVTVEDERTLVRRNNTFLSLRDVFGKDLIYTLYYWKSSSSGKKTAATNTNEFLIDVDKGENYCFSVQAVIPSRTVNRKSTDSPVECMGQEKGEFRE
modifications: extracellular domain
- sk_class ([1]; ref SKEMPI): Neutral (neutral (little effect) 4.184 kJ/mol < ΔΔG > −4.184 kJ/mol)
- sk_ddG_kJ ([2]; single mutation to alanine): 0.50 kJ

B12: 1DAN EU208A (protein, UniProt P13726 33-251, looked up, variant E208A)
extracellular domain: SGTTNTVAAYNLTWKSTNFKTILEWEPKPVNQVYTVQISTKSGDWKSKCFYTTDTECDLTDEIVKDVKQTYLARVFSYPAGNVESTGSAGEPLYENSPEFTPYLETNLGQPTIQSFEQVGTKVNVTVEDERTLVRRNNTFLSLRDVFGKDLIYTLYYWKSSSSGKKTAKTNTNEFLIDVDKGENYCFSVQAVIPSRTVNRKSTDSPVACMGQEKGEFRE
modifications: extracellular domain
- sk_class ([1]; ref SKEMPI): Neutral (neutral (little effect) 4.184 kJ/mol < ΔΔG > −4.184 kJ/mol)
- sk_ddG_kJ ([2]; single mutation to alanine): 0.00 kJ
